Test results from paper PMC12276012, “Molecular mechanisms of biomolecular condensate formation in Drosophila melanogaster siRNA biogenesis”.

Target: T1, Loqs-PD 1,2-mut (Drosophila melanogaster, UniProt Q9VJY9-4 1-359, K189A;K190A;K301A;K302A)
T1 sequence: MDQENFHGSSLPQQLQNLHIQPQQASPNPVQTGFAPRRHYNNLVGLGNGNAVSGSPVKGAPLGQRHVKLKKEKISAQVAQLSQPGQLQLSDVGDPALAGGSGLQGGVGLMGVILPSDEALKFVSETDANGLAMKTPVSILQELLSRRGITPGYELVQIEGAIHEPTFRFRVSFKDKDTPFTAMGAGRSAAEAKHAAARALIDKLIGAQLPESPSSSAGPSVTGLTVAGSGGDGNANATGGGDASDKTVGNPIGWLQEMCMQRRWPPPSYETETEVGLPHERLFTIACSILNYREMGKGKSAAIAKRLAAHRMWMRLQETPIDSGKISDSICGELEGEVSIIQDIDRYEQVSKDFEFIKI
Assay: EMSA; 400 nM RNA, 400-3200 nM protein; EMSA: 20 mM sodium phosphate pH 6.5, 150 mM NaCl, 15% glycerol, 15 min, 1% agarose 1x TBE; NMR: 20 mM sodium phosphate pH 6.5, PS-I or PS-II buffer (50-500 mM NaCl), 292 K for Loqs-PD deltaC
Details: protein: recombinant; tags: His6-GB1 or His6 tag, cleaved by TEV; label: 3' Cy5; hairpin, 21 bp stem, GUGA loop

## GGAGCUUUCAAAAUGAUCUCCGUGAGGAGAUCAUUUUGAAAGCUCC (structured_RNA, 3' pCp-Cy5 ligated (adds one C)) [21 bp hairpin dsRNA, Cy5]
  binding result: no binding
